T1: DrHU WT (Deinococcus radiodurans R1 (ATCC13939), UniProt Q9RZ89 1-122)
T1 sequence: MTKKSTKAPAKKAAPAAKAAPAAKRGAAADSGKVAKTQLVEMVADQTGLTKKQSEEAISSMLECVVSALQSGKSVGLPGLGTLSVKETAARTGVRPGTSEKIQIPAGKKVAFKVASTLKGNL

B1: Duplex DNA (36bp) (dsDNA)
DNA 1: GCAGAGTCAATTATGTCAATGACATAAAAGGCTCAG
DNA 2: CTGAGCCTTTTATGTCATTGACATAATTGACTCTGC
B2: Duplex DNA (24bp) (dsDNA)
DNA 1: TCAATTATGTCAATGACATAAAAG
DNA 2: CTTTTATGTCATTGACATAATTGA
B3: Duplex DNA (48bp) (dsDNA)
DNA 1: TAACAAGCAGAGTCAATTATGTCAATGACATAAAAGGCTCAGGCCTTC
DNA 2: GAAGGCCTGAGCCTTTTATGTCATTGACATAATTGACTCTGCTTGTTA

The binders below were run against T1, DrHU WT (assay: EMSA; 10 mM Mg2+; EMSA: 50 mM NaCl, 20 mM Tris-HCl pH 8.0, 0.1 mg/ml BSA, 3 mM DTT, 0.1 mM EDTA, 10% glycerol, 10 mM MgCl2, 50 nM DNA, 0-3200 nM DrHU, room temperature 20 min; 22% native PAGE in 1x TB). Settings: protein: recombinant; tags: N-terminal His-MBP (pET28a-HMT), removed by TEV; chain copies: 2; label: 5'-FAM; blunt.
B1 was tested, and the Kd was 1.35 ± 0.201 µM. B2 gave a Kd of 1.48 ± 0.0418 µM. B3 was tested, and the Kd was 0.449 ± 0.0296 µM.

Reference: paper PMC9900698, “Phosphorylation Regulation of a Histone-like HU Protein from Deinococcus radiodurans”
